In PMC12525626, “Phosphorylation as a candidate regulatory mechanism for effector recruitment to tankyrase” (Royal Society Open Science, 2025):
Square brackets hold non-standard residues; d marks the D form. 5(6)‑carboxyfluorescein = 5(6)-carboxyfluorescein; pS = N[C@@H](COP(=O)(O)O)C(=O)O; βAla = NCCC(=O)O

Columns and labels:
[1] = target: T1, Human TNKS2 ARC4 (residues 488-649), wild type (human, UniProt Q9H2K2 488-649); assay: fluorescence polarisation; carboxyfluorescein-labelled MDC1 TBM1 peptides with TNKS2 ARC4 protein (no-protein wells as baseline); POLARstar Omega plate reader; n = 3 separate experiments in technical duplicate; one-site total binding model, standard errors of the fit; conditions: both partners purified
T1 construct: Tankyrase-2 (TNKS2), human, ankyrin repeat cluster 4, residues 488-649 of NM_025235.2, from the construct pETM30-2-TNKS2 ARC4; Monomeric by SEC-MALS; also called WT ARC4; tankyrase ankyrin repeat cluster 4; source: E. coli BL21-CodonPlus(DE3)-RIL, purified (HisTrap, TEV cleavage, second HisTrap, Superdex 75)
T1 sequence (looked up): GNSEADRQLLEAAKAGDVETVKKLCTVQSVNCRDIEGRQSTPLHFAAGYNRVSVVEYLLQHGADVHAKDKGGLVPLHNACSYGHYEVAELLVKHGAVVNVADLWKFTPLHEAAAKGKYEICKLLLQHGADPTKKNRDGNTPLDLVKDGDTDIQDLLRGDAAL

[2] = target: T1, Human TNKS2 ARC4 (residues 488-649), …; assay: crystal structure; TNKS2 ARC4 at 20 mg/ml with 1.5-fold molar excess of phospho-MDC1 peptide in 25 mM HEPES-NaOH pH 7.5, 100 mM NaCl, 2 mM TCEP; sitting drop, 4°C, 0.1 M Na cacodylate pH 6.5, 0.2 M Na acetate, 30% PEG 8000; molecular replacement; conditions: both partners purified

B1: MDC1 TBM1 peptide, non-phosphorylated (5(6)-carboxyfluorescein-βAla-QRGEPEGGSQ-NH2) (peptide)
peptide: {5(6)‑carboxyfluorescein-βAla}-QRGEPEGGSQ-NH2
notes: also called Non-phosphorylated TBM1; source: synthetic peptide (JPT, Berlin; crude stock, greater than 70% pure by HPLC)
Binder B1 has a Kd [1] of 4.5 µM.

B2: MDC1 phospho-TBM1 peptide for co-crystallization (acetyl-943ERDTQRGEPEGG-pS-QDQ958-NH2) (peptide)
peptide: Ac-ERDTQRGEPEGG[pS]QDQ-NH2
SMILES: CC(=O)N[C@@H](CCC(=O)O)C(=O)N[C@@H](CCCNC(=N)N)C(=O)N[C@@H](CC(=O)O)C(=O)N[C@H](C(=O)N[C@@H](CCC(N)=O)C(=O)N[C@@H](CCCNC(=N)N)C(=O)NCC(=O)N[C@@H](CCC(=O)O)C(=O)N1CCC[C@H]1C(=O)N[C@@H](CCC(=O)O)C(=O)NCC(=O)NCC(=O)N[C@@H](COP(=O)(O)O)C(=O)N[C@@H](CCC(N)=O)C(=O)N[C@@H](CC(=O)O)C(=O)N[C@@H](CCC(N)=O)C(N)=O)[C@@H](C)O
notes: Mediator of DNA damage checkpoint protein 1 (MDC1), human, residues 943-958 around TBM1; also called phospho-MDC1 peptide; source: synthetic peptide (JPT, Berlin; HPLC-purified)
B2: binds [2].
